Measured values: US7951560B2, “Delta 4,5 glycuronidase compositions and methods related thereto” (Massachusetts Institute of Technology, priority 2002, dated 2011)
“Also recorded” adds a separate entry of the source.

Experiments:
[1] = Specific activity of recombinant Δ4, 5 glycuronidase purification fractions; type: biochemical; settings: 800 ng protein, 120 μM ΔUHNAc, 100 μl
Protocol: (§1) Assay for enzyme activity and determination of kinetic parameters. Standard reactions were carried out at 30° C. and included 100 mM sodium phosphate buffer, pH 6.4, 50 mM NaCl, 500 μM disaccharide substrate and 200 nM enzyme in a 100 μl reaction volume. Hydrolysis of heparin disaccharides was determined spectrophotometrically by measuring the loss of the Δ4, 5 chromophore measured at 232 nm Substrate hydrolysis was calculated using the following molar extinction coefficients empirically determined for each disaccharide substrate: ΔUHNAc, ε232=4,524; ΔUHNAc6S, ε232=4,300; ΔUHNS, ε232=6,600; ΔUHNS,6S, ε232=6,075; ΔUHNH26S, ε232=4,826; ΔU2SHNS, ε232=4,433. Initial rates (Vo) were extrapolated from linear activities representing <10% substrate turnover and fit to pseudo first-order kinetics. For kinetic experiments, disaccharide concentration for each respective substrate was varied from 48 to 400 μM concentrations. Km and kcat values were extrapolated from Vo vs. [S] curves fit to the Michaelis Menten equation by a non-linear, least squares regression.
(§2) A two-step purification comprised of Ni^+2 chelation chromatography followed by thrombin cleavage to remove the 6× His purification tag, typically yielded over 200 mg of greater than 90% pure enzyme as assessed by SDS-PAGE followed by Coomassie Brilliant Blue staining. […] T. and Linker, A., 1972, Biochemistry 11, 568-72]. While removal of the 6× His tag from the N-terminus of the enzyme was unnecessary for optimal hydrolytic activity, the presence of the histidine tag did appear to instigate protein precipitation over an extended time especially at higher enzyme concentrations. This tag was, therefore removed for all subsequent biochemical experiments. In this manner, the recombinant protein was stable at 4° C. for at least two weeks during which time it remained in solution at protein concentrations exceeding 10 mg/mL under the buffer conditions described.

[2] = Biochemical conditions for optimal enzyme activity (NaCl, pH, temperature, divalent metals)
Protocol: For experiments measuring the relative effect of ionic strength on glycuronidase activity, the NaCl concentration was varied from 0.05 to 1 M in 0.1 M sodium phosphate buffer (pH 6.4), 200 μM ΔUHNS,6S and […] under otherwise standard reaction conditions. The effect of pH on catalytic activity was kinetically determined at varying AUHNS,6S concentrations in 0.1 M sodium phosphate buffer at pH 5.2, 5.6, 6.0, 6.4, 6.8, 7.2 and 7.8. Data were fit to Michaelis-Menten kinetics as described above and the relative kcat/Km ratios plotted as a function of pH.
To determine the optimal reaction conditions for Δ4, 5 glycuronidase activity, we analyzed initial reaction rates as a function of buffer, pH, temperature, and ionic strength (FIG. 6). For these experiments, we used the disulfated heparin disaccharide substrate ΔUHNS,6S. Based on what is known about the degradation of heparin/heparan sulfate-like glycosaminoglycans by flavobacteria as well as initial biochemical characterization of this and related enzymes [Warnick, C. T. and Linker, A., 1972, Biochemistry 11, 568-72], we hypothesized that a heparin disaccharide would be an optimal substrate for the Δ4, 5 glycuronidase. Enzyme activity was routinely monitored by a loss of absorbance at 232 nm, corresponding indirectly to the hydrolysis of the uronic acid from the non-reducing end.

[3] = Kinetic comparison of native and recombinant enzymes; type: biochemical; settings: identical reaction conditions, 200 nM enzyme, 500 μM ΔUHNAc
Protocol: FIG. 7 depicts a kinetic comparison of native and recombinant enzymes. Relative specific activities were measured for both enzyme fractions under identical reaction conditions that included 200 nM enzyme and 500 μM of the heparin disaccharide substrate (ΔUHNAc). Flavobacterial Δ4, 5 (closed circles); recombinant Δ4, 5 (open circles).
Having established the reaction conditions for optimal Δ4, 5 glycuronidase activity, we next compared the specific activity of the recombinant enzyme (Δ4,5^Δ20) relative to the native enzyme purified directly from F. heparinum (FIG. 7). The activities of both enzyme fractions were measured in parallel under identical reaction conditions.

[4] = Storage stability and solubility of the recombinant protein after 6× His tag removal; type: physicochemical; settings: 6× His tag removed, phosphate buffer
Protocol: as §2

[5] = substrate: CC(=O)N[C@H]1C(O)O[C@H](CO)[C@@H](O[C@@H]2OC(C(=O)O)=C[C@H](O)[C@H]2O)[C@@H]1O; experiment: Kinetic parameters of Δ4, 5 glycuronidase for disaccharide substrates (loss of absorbance at 232 nm, Michaelis-Menten fit); type: biochemical, F. heparinum; settings: other: 200 nM enzyme, 30° C., pH 6.4, substrate 48 to 400 μM
Protocol: as §1
(§3) The specificity of the Δ4, 5 glycuronidase acting on various glycosaminoglycan disaccharide substrates was investigated. The various substrates examined included both heparin and chondroitin disaccharides as well as an hyaluronadate. In particular, we considered the possibility of any structural discriminations pertaining to glycosidic linkage position (1→4 vs. 1→3) and relative sulfation state within the disaccharide. For each substrate, kinetic parameters were determined based on substrate saturation profiles that fit Michaelis-Menten assumptions (FIG. 8).

[6] = substrate: CC(=O)N[C@H]1C(O)O[C@H](COS(=O)(=O)O)[C@@H](O[C@@H]2OC(C(=O)O)=C[C@H](O)[C@H]2O)[C@@H]1O; experiment: as above; type: biochemical, F. heparinum; settings: other: 200 nM enzyme, 30° C., pH 6.4, substrate 48 to 400 μM
Protocol: as §1, §3

[7] = substrate: N[C@H]1C(O)O[C@H](COS(=O)(=O)O)[C@@H](O[C@@H]2OC(C(=O)O)=C[C@H](O)[C@H]2O)[C@@H]1O; experiment: as above; type: biochemical, F. heparinum; settings: other: 200 nM enzyme, 30° C., pH 6.4, substrate 48 to 400 μM
Protocol: as §1, §3

[8] = substrate: O=C(O)C1=C[C@H](O)[C@@H](O)[C@H](O[C@H]2[C@H](O)[C@@H](NS(=O)(=O)O)C(O)O[C@@H]2CO)O1; experiment: as above; type: biochemical, F. heparinum; settings: other: 200 nM enzyme, 30° C., pH 6.4, substrate 48 to 400 μM
Protocol: as §1, §3

[9] = substrate: O=C(O)C1=C[C@H](O)[C@@H](O)[C@H](O[C@H]2[C@H](O)[C@@H](NS(=O)(=O)O)C(O)O[C@@H]2COS(=O)(=O)O)O1; experiment: as above; type: biochemical, F. heparinum; settings: other: 200 nM enzyme, 30° C., pH 6.4, substrate 48 to 400 μM
Protocol: as §1, §3

B1: recombinant Δ4, 5 glycuronidase (Δ4,5^Δ20) (Pedobacter heparinus DSM 2366) (protein)
chain: MTVTKGNGDDWLKKSTKTAVIQLTRAAQTYTPGMNPRSVNPDGTVRLAPPRDWTTGFFPGTLWYGYELSGDKNLAAEAKRFTLALDTIQYVKDTHDLGFMLYCSYGNAYRVTGDKIYLKPLENGAANLYARFNKKVGAIRSWDFGHWQFPVIIDNLMNLEYLYWAGKEFNKPEWFDAAKTHAVTTMKNHFRKDYSSYHVISYDTLSGKVLQRETHQGLTNESAWARGQAWGLYGYTMSYKDTKDKKFIEHAEHIAAFIMNHPAMPADKIPLWDFDVHNRDRSPRDASAAAVIASALLDLSTQVKDGQKYFKFAEDILKTLSSDEYLAKPGENQFFILKHSVGALLYNSEIDTPLNYADYYYLEALKRYAEIKKIDLKTINQS
[1]; Crude lysate
  Sp. Activity: 4.7 μmoles DiS/min./mg protein
[1]; Ni^+2 chromatography
  Sp. Activity: 12.9 μmoles DiS/min./mg protein
[1]; Thrombin cleavage
  Sp. Activity: 13.6 μmoles DiS/min./mg protein
[2]
  requirement for divalent metal ions: no evidence that metals are either required for catalysis or activate the enzyme
[2]; 0.1 M sodium phosphate pH 5.2-7.8, ΔUHNS,6S, relative kcat/Km
  pH optimum: 6.4
[2]; especially at 42° C.
  initial reaction rates at highest temperatures: significantly reduced
[2]; preincubation at 30, 37, and 42° C., then measured at standard 30° C.
  relative enzyme activities after preincubation (enzyme stability): no significant change
[2]; relative to 100% activity at 100 mM NaCl
  inhibition at 250 mM NaCl: approximately 60%
[3]
  specific activity relative to the native Flavobacterial enzyme: approximately three-fold; also recorded: at least two-fold; also recorded: roughly three-fold
[4]
  stable at 4° C.: at least two weeks
[5]
  Km: 283 ± 31 µM
  kcat: 15.3 ± 0.9 s⁻¹
  kcat/Km: 54000 M⁻¹ s⁻¹
[6]
  Km: 107 ± 15 µM
  kcat: 11.7 ± 0.6 s⁻¹
  kcat/Km: 110000 M⁻¹ s⁻¹
[7]
  Km: 235 ± 40 µM
  kcat: 2.4 ± 0.2 s⁻¹
  kcat/Km: 10000 M⁻¹ s⁻¹
[8]
  Km: 251 ± 40 µM
  kcat: 4.9 ± 0.4 s⁻¹
  kcat/Km: 20000 M⁻¹ s⁻¹
[9]
  Km: 334 ± 57 µM
  kcat: 8.8 ± 0.9 s⁻¹
  kcat/Km: 26000 M⁻¹ s⁻¹
